Experimental data: US6492123

Legend:
hen egg lysozyme (hen) [1] = biological target: hen egg lysozyme (hen) (UniProt P00698); assay: BIAcore, HEL coated chip
hen egg lysozyme (hen) [2] = biological target: hen egg lysozyme (hen) (UniProt P00698); assay: phage ELISA, 50 µl phage supernatant, anti-M13 detection; background 0.1

Sequence of UniProt P00698 (P00698 19-147 limits assumed): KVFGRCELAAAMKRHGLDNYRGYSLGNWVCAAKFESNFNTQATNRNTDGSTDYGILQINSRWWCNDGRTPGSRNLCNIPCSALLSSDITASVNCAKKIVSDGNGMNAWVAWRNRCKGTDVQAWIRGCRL

Substance | koff (hen egg lysozyme (hen) [1]) [s⁻¹] | absorbance signal (hen egg lysozyme (hen) [2])
construct VI bispecific NQ11/D1.3 diabody, 5-residue linkers (bispecific antibody) | 0.0022 | –
chimaeric FabD1.3 | 0.003 | –
NQ11/D1.3/0 bispecific diabody displayed on phage (pHEN1) (bispecific antibody) | – | 2.8
